Here are results for 1 substance from doi:10.1101/829945.

This assay deals with fibrin fragment E. The assay can be described thus: SPR.

With “soluble recombinant human αVβ3-integrin (from UniProt P06756 31-1048; P05106 27-718) (receptor)”, the Kd was in the range of 2 to 20 nM.
